Columns and labels:
[1] = biological target: T1, HIV-1 gp120 monomer, strain HxBc2 (HIV-1, strain HxBc2), P04578; test: SPR; conditions: remark: other sources report otherwise
[2] = biological target: T1, HIV-1 gp120 monomer, strain HxBc2 …; test: SPR; conditions: remark: other sources report otherwise; remark: listed apart in the source

B1: wild-type cyanovirin-N (WT CV–N), P81180 1-101 (natural protein)
chain: LGKFSQTCYNSAIQGSVLTSTCERTNGGYNTSSIDLNSVIENVDGSLKWQPSNFIETCRNTQLAGSSELAAECKTRAQQFVSTKINLDDHIANIDGTLKYE
[1]
  Kd: 260 nM
[2]
  Kd: 250 nM

Source: publication PMC8231982
